Experimental data as given in publication PMC4818781 (EMBO Reports, 2016).
Where “and” joins values, the source holds several entries; their conditions need not be identical. Equal entries are not always repeated.

B1: His‐GFP‐spMis18fl, recombinant full‐length S. pombe Mis18 (natural protein, Schizosaccharomyces pombe, UniProt Q9P802 1-194, looked up)
chain: MSQTETSHSGYIDFKKESQPSVFQCKKCFQIVGDSNAWVISHREYLSFTLSDAVENSVRVEDTFKRSDDGLCVYSELSCTRCNEVIGKVYNSTPIYLDDIRDMYTFSMDKLQAYQLGNKTVNPEGLTRYQVDLEMREDIIKLKSFCLSLYEKFELHDETLRSVKETISSLKKPKIEGKEGKKEKARTYSKRTRK
B2: His‐GFP‐spMis18_(C‐term‐α), C‐terminal α‐helical domain of S. pombe Mis18 (domain or fragment, Schizosaccharomyces pombe, UniProt Q9P802 121-194, looked up)
chain: VNPEGLTRYQVDLEMREDIIKLKSFCLSLYEKFELHDETLRSVKETISSLKKPKIEGKEGKKEKARTYSKRTRK
B3: His‐spMis18_(1–120), N‐terminal Yippee‐like globular domain of S. pombe Mis18 (domain or fragment, Schizosaccharomyces pombe, UniProt Q9P802 1-120, looked up)
chain: MSQTETSHSGYIDFKKESQPSVFQCKKCFQIVGDSNAWVISHREYLSFTLSDAVENSVRVEDTFKRSDDGLCVYSELSCTRCNEVIGKVYNSTPIYLDDIRDMYTFSMDKLQAYQLGNKT
B4: His‐spMis18ΔC (amino acids 1–168) (domain or fragment, Schizosaccharomyces pombe, UniProt Q9P802 1-168, looked up)
chain: MSQTETSHSGYIDFKKESQPSVFQCKKCFQIVGDSNAWVISHREYLSFTLSDAVENSVRVEDTFKRSDDGLCVYSELSCTRCNEVIGKVYNSTPIYLDDIRDMYTFSMDKLQAYQLGNKTVNPEGLTRYQVDLEMREDIIKLKSFCLSLYEKFELHDETLRSVKETIS
B5: His‐hsMis18α_(77–187), Yippee‐like globular domain of human Mis18α (domain or fragment, UniProt Q9NYP9 77-187, looked up)
chain: EERPLVFLCSGCRRPLGDSLSWVASQEDTNCILLRCVSCNVSVDKEQKLSKREKENGCVLETLCCAGCSLNLGYVYRCTPKNLDYKRDLFCLSVEAIESYVLGSSEKQIVS

Legend:
[1] = target: the molecule itself; experiment: SEC-MALS; room temperature; 100 μl of protein at 1 mg/ml; 50 mM HEPES pH 8, 300 mM NaCl, 1 mM TCEP
[2] = target: the molecule itself; experiment: SEC-MALS; room temperature; 100 μl of protein at 1 mg/ml; 50 mM HEPES pH 8, 150 mM NaCl, 5 mM DTT; elution volumes of SEC also told
[3] = target: the molecule itself; experiment: SEC-MALS; room temperature; 100 μl of protein at 1 mg/ml; 50 mM HEPES pH 8, 50 mM NaCl, 5 mM DTT
[4] = target: hsMis18β_(56–183), Yippee‐like globular domain of human Mis18β (human, UniProt O43482 56-183); experiment: SEC-MALS; room temperature; 100 μl of protein at 1 mg/ml; 50 mM HEPES pH 8, 150 mM NaCl, 5 mM DTT; elution volumes of SEC also told; details: both partners purified
Sequence of hsMis18β_(56–183), Yippee‐like globular domain of human Mis18β (O43482 56-183): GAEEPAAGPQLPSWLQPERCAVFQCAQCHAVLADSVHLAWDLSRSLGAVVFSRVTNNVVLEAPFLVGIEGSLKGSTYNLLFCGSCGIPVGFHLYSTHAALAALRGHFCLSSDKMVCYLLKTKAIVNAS

| Binder | stoichiometry N [2] | other results |
| --- | --- | --- |
| B1 | – | stoichiometry N [1]: 4 and 2 |
| B2 | 3 | – |
| B3 | 2 | – |
| B4 | – | stoichiometry N [3]: 2 and 4 |
| B5 | 2 | stoichiometry N [4]: 1 |
